According to patent US10428347B2, “Herbicide-detoxifying enzymes and uses thereof” (priority 2017, dated 2019):

How the values were obtained:
[1] = Sequestration of dicamba by ChD (3 kDa filter, absorbance at 230 nm); format: binding; settings: dicamba 100 mg/L, 10, 20, 30 and 40 uL enzyme solution, 5 minutes at 37° C. (FIG. 18)
Procedure: To four of the tubes, enzyme solution was added to four of the tubes at 10, 20, 30, and 40 uL rates. The two tubes without the enzyme solution served as controls for the experiment. When the enzyme was added, five of the tubes (one of the 0 uL enzyme tubes, and all of the tubes with the enzyme added) were placed in the Eppendorf Thermomixer R for 5 minutes, at 37° C., and 800 rpm. After the incubation period, the tubes were removed from the heat and placed on ice to stop the reaction. […] These new tubes were spun at 1400 rpm for five minutes. When the spin was completed, 100 uL of the top and bottom fractions were added into a 96-well UV-Star plate. Spectral readings were then taken from 200 nm to 340 nm. The reads for the buffer alone controls were subtracted from the experimental values. The relative difference between the control without enzyme added and the experimental samples with enzyme added was calculated at 230 nm.

[2] = Absorbance spectra assay of dicamba degradation by ChD or CAC; settings: dicamba 200 mg/L + enzyme at 20X dilution (5 μM), one hour at 37° C.
[3] = Absorbance spectra assay of 2,4-D degradation by ChD or CAC; format: biochemical; settings: one hour at 37° C.
[4] = Absorbance spectra assay of MCPA-4 amine degradation by ChD or CAC; format: biochemical; settings: one hour at 37° C.
Procedure: (§1) Small scale (1 mL) assays were performed to evaluate the ability of ChD and CAC to degrade MCPA-4 amine or mecoprop.
(§2) MCPA-4 amine and mecoprop have absorbance maxima (Amax) at approximately 230 and 280 nm. […] MCPA-4 amine or mecoprop end product generation is directly proportional to the degradation MCPA-4 amine or mecoprop, respectively.

soybean = test: Spray tank dicamba treated with ChD crude cell lysate, applied to field soybean; format: in vivo; settings: field soybean V2-V3, 2 ml of tank sample (about 200 mg/L dicamba, with or without 5% v/v crude cell lysate for 10 minutes), one week after application (FIG. 15)
Procedure: Chlorothalonil dehalogenase (ChD, SEQ ID NO: 168) was prepared as a crude cell lysate as described above in Example 5. […] A 5% v/v solution of the crude cell lysate containing the ChD enzyme was added and the tank was run for an additional 10 minutes. […] Each of the samples was frozen immediately after collection from the tank. Samples were transported to the field on ice to ensure that enzyme activity was halted.

[5] = Absorbance spectra assay of mecoprop degradation by ChD or CAC; format: biochemical; settings: one hour at 37° C.
Procedure: as §1, §2

B1: ChD: chlorothalonil dehalogenase from Pseudomonas species strain CTN-3, amino acid SEQ ID NO: 168 (protein, listed as Pseudomonas sp.)
chain: MPPGCSGLCSFVGLTMPLKFSGVLCASLLTITLSVAAHATELILDFNKVQMRSQQLAPGVYAHLPADSAELNAKGGVAGTSGGLIVGTRGAMLIETMLNRRLFDQVQALAKKEALGLPLLYAVNTSYHGDHSYGNMYLKAPTRVIQSTKTRDYVDGHLADDKAFMVKNFGAGRGVEQITARTGDILVPPGGRVSVDLGGKTVEIIDFGFAQTGGDLFVWEPQSKVMWTGNAVVASKPALPWLLDGKLVETLATLQKVYDFLPPDATIVPGHGVPMAREGLRWHLDYLAAVQAGVKDALARKLSLEQTVTELKMPEFRGYVLFDWVHPDLNVPAAYKDLAARP
In the case of B1, the “dicamba in a bound state (relative absorbance at 230 nm of 3 kDa filter fractions)” value [1] is reported as “dose-dependent effect”, the “Percent (%) increase in 259 λ (end product formed) compared to dicamba control” value [2] is reported as 501% and the “Percent (%) increase in 252 λ, (end product formed) compared to 2,4-D control” value ([3]; 2,4-D 200 mg/L + enzyme at 20X dilution (5 μM)) is reported as 196%. The “Percent (%) increase in 252 λ, (end product formed) compared to 2,4-D control” value ([3]; 2,4-D 200 mg/L + enzyme at 40X dilution ([…])) was 122%, the “Percent (%) increase in 252 λ (end product formed) compared to MCPA-4-Amine control” value ([4]; MCPA-4 amine 200 mg/L + enzyme at 20X dilution (5 μM)) was 464% and the “Percent (%) increase in 252 λ (end product formed) compared to MCPA-4-Amine control” value ([4]; MCPA-4 amine 200 mg/L + enzyme at 40X dilution ([…])) was 128.9%. For the same molecule, the “damage to or protection of soybean crop (size and growth vs untreated control)” value (soybean) was “almost complete protection of the plants”, the “Percent (%) increase in 252 λ (end-product formed) compared to Mecoprop control” value ([5]; mecoprop 200 mg/L + enzyme at 20X dilution (5 μM)) was 164% and the “Percent (%) increase in 252 λ (end-product formed) compared to Mecoprop control” value ([5]; mecoprop 200 mg/L + enzyme at 40X dilution ([…])) was 129%.
